Assay results from US8840891 (RSR, dated 2014).

Legend:
Experiment in all cases: cell-based or functional assay
[1] = target: TSHR Lys183Ala expressed in CHO cells (human) (UniProt P16473)
[2] = target: TSHR I568T (activating mutation) expressed in CHO cells (human) (UniProt P16473)
[3] = target: human TSHR (wild type) expressed in CHO cells (human) (UniProt P16473)
[4] = target: human TSHR, wild type, expressed on CHO cells (human) (UniProt P16473)

- % inhibition of TSH stimulation of cyclic AMP; 5C9 IgG 1 µg/mL [1]: 28%
- % inhibition of TSH stimulation of cyclic AMP; 5C9 IgG 100 µg/mL [1]: 43%
- % inhibition of basal cyclic AMP activity; 5C9 IgG 1 µg/mL [2]: 83%
- % inhibition of TSH stimulation of cyclic AMP; 5C9 IgG 1 µg/mL; wild type in the Asp151Ala experiment [3]: 88%
- % inhibition of TSH stimulation of cyclic AMP; 5C9 IgG 1 µg/mL; wild type in the Lys183Ala experiment [3]: 84%
- % inhibition of TSH stimulation of cyclic AMP; 5C9 IgG 100 µg/mL; wild type in the Lys183Ala experiment [3]: 93%
- activity in blocking TSH stimulation of cyclic AMP, relative to donor serum IgG [3]: 3900 times
- basal cyclic AMP level relative to cyclic AMP assay buffer; 5C9 IgG 1 µg/mL; CHO cells with approximately 5x10^5 wild type TSHRs per cell [3]: 33%
- cyclic AMP production; 5C9 IgG 0.001 µg/mL + M22 Fab 3 ng/mL (fmol/cell well) [3]: 11600
- cyclic AMP production; 5C9 IgG 0.001 µg/mL + pTSH 3 ng/mL (fmol/cell well) [3]: 14100
- cyclic AMP production; 5C9 IgG 0.001 µg/mL only (fmol/cell well) [3]: 554
- cyclic AMP production; 5C9 IgG 0.01 µg/mL + M22 Fab 3 ng/mL (fmol/cell well) [3]: 9980
- cyclic AMP production; 5C9 IgG 0.01 µg/mL + pTSH 3 ng/mL (fmol/cell well) [3]: 15000
- cyclic AMP production; 5C9 IgG 0.01 µg/mL only (fmol/cell well) [3]: 578
- cyclic AMP production; 5C9 IgG 0.1 µg/mL + M22 Fab 3 ng/mL (fmol/cell well) [3]: 1300
- cyclic AMP production; 5C9 IgG 0.1 µg/mL + pTSH 3 ng/mL (fmol/cell well) [3]: 3920
- cyclic AMP production; 5C9 IgG 0.1 µg/mL only (fmol/cell well) [3]: 404
- cyclic AMP production; 5C9 IgG 1 µg/mL + M22 Fab 3 ng/mL (fmol/cell well) [3]: 956
- cyclic AMP production; 5C9 IgG 1 µg/mL + pTSH 3 ng/mL (fmol/cell well) [3]: 1870
- cyclic AMP production; 5C9 IgG 1 µg/mL only (fmol/cell well) [3]: 376
- cyclic AMP production; 5C9 IgG 10 µg/mL + M22 Fab 3 ng/mL; mean of duplicate samples (fmol/cell well) [3]: 638
- cyclic AMP production; 5C9 IgG 10 µg/mL + pTSH 3 ng/mL (fmol/cell well) [3]: 1030
- cyclic AMP production; 5C9 IgG 10 µg/mL only (fmol/cell well) [3]: 360
- cyclic AMP production; 5C9 IgG 100 µg/mL + M22 Fab 3 ng/mL (fmol/cell well) [3]: 354
- cyclic AMP production; 5C9 IgG 100 µg/mL + pTSH 3 ng/mL (fmol/cell well) [3]: 1090
- cyclic AMP production; 5C9 IgG 100 µg/mL only (fmol/cell well) [3]: 426
- cyclic AMP; 5C9 IgG 0.01 µg/mL + pTSH (3 ng/mL) (fmol/cell well) [3]: 19000
- cyclic AMP; 5C9 IgG 0.02 µg/mL + pTSH (3 ng/mL) (fmol/cell well) [3]: 16400
- cyclic AMP; 5C9 IgG 0.04 µg/mL + pTSH (3 ng/mL) (fmol/cell well) [3]: 13900
- cyclic AMP; 5C9 IgG 0.06 µg/mL + pTSH (3 ng/mL); single determination (fmol/cell well) [3]: 13300
- cyclic AMP; 5C9 IgG 0.08 µg/mL + pTSH (3 ng/mL) (fmol/cell well) [3]: 14500
- cyclic AMP; 5C9 IgG 0.1 µg/mL + pTSH (3 ng/mL) (fmol/cell well) [3]: 11900
- cyclic AMP; 5C9 IgG 0.5 µg/mL + pTSH (3 ng/mL) (fmol/cell well) [3]: 4750
- cyclic AMP; 5C9 IgG 1 µg/mL + pTSH (3 ng/mL) (fmol/cell well) [3]: 2210
- cyclic AMP; 5C9 IgG only 1 µg/mL (fmol/cell well) [3]: 141
- cyclic AMP; Example 1; 5C9 IgG 10 µg/mL + TSH (fmol/cell well) [3]: 247
- cyclic AMP; Example 1; 5C9 IgG 100 µg/mL + TSH (fmol/cell well) [3]: 754
- cyclic AMP; Example 1; 5C9 IgG 100 µg/mL only (fmol/cell well) [3]: 237
- cyclic AMP; Example 2; 5C9 IgG 10 µg/mL + TSH (fmol/cell well) [3]: 723
- cyclic AMP; Example 2; 5C9 IgG 100 µg/mL + TSH (fmol/cell well) [3]: 1110
- cyclic AMP; Example 2; 5C9 IgG 100 µg/mL only (fmol/cell well) [3]: 338
- inhibition of cyclic AMP production stimulated by patient serum T3; 5C9 IgG 100 µg/mL [3]: 50%
- % inhibition of basal cyclic AMP production; Exp 2; 5C9 IgG 0.001 µg/mL [4]: 10.8%
- % inhibition of basal cyclic AMP production; Exp 2; 5C9 IgG 0.01 µg/mL [4]: 37.2%
- % inhibition of basal cyclic AMP production; Exp 2; 5C9 IgG 0.1 µg/mL [4]: 45.7%
- % inhibition of basal cyclic AMP production; Exp 2; 5C9 IgG 1 µg/mL [4]: 71%
- % inhibition of basal cyclic AMP production; Exp 2; 5C9 IgG 10 µg/mL [4]: 74.6%
- % inhibition of basal cyclic AMP production; Exp 2; 5C9 IgG 100 µg/mL [4]: 54.9%
- % inhibition of basal cyclic AMP production; Exp 3; 5C9 IgG 0.1 µg/mL [4]: 1%
- % inhibition of basal cyclic AMP production; Exp 3; 5C9 IgG 1 µg/mL [4]: 61%
- % inhibition of basal cyclic AMP production; Exp 3; 5C9 IgG 10 µg/mL [4]: 59%
- % inhibition of basal cyclic AMP production; Exp 3; 5C9 IgG 100 µg/mL [4]: 56%
- cyclic AMP; Exp 1; 5C9 1 µg/mL + TSH 3 ng/mL [4]: 13.9 pmol/mL
- cyclic AMP; Exp 1; 5C9 10 µg/mL + TSH 3 ng/mL [4]: 3.7 pmol/mL
- cyclic AMP; Exp 1; 5C9 10 µg/mL only [4]: 0.45 pmol/mL
- cyclic AMP; Exp 1; native human TSH 100 ng/mL + 5C9 IgG 0.001 µg/mL [4]: 36 pmol/mL
- cyclic AMP; Exp 1; native human TSH 100 ng/mL + 5C9 IgG 0.01 µg/mL [4]: 18 pmol/mL
- cyclic AMP; Exp 1; native human TSH 100 ng/mL + 5C9 IgG 0.1 µg/mL [4]: 0.2 pmol/mL
- cyclic AMP; Exp 1; native human TSH 100 ng/mL + 5C9 IgG 1.0 µg/mL [4]: 0.14 pmol/mL
- cyclic AMP; Exp 1; native human TSH 100 ng/mL + 5C9 IgG 10 µg/mL [4]: 0.11 pmol/mL
- cyclic AMP; Exp 1; native human TSH 100 ng/mL + 5C9 IgG 100 µg/mL [4]: 0.16 pmol/mL
- cyclic AMP; Exp 1; recombinant human TSH 100 ng/mL + 5C9 IgG 0.001 µg/mL [4]: 13.6 pmol/mL
- cyclic AMP; Exp 1; recombinant human TSH 100 ng/mL + 5C9 IgG 0.01 µg/mL [4]: 8.13 pmol/mL
B1: 5C9 IgG (human monoclonal autoantibody to the TSHR) (antibody, from another filing, V domains shown)
VH: EVQLVESGGGLIQPGGSLRLSCAASGFTVSSNYMSWVRQAPGKGLEWVSVTYSGGSTSYADSVKGRFTISRDNSKNTLYLQMNSLRAEDTAVYYCARGGRYCSSISCYARSGCDYWGQGTLVTVSS
VL: AIQMTQSPSSLSASVGDRVTITCRASQSISNYLNWYQQKPGKAPKLLIYAASSLQSGVPSRFSGSGSGTDFTLTISSLQPEDFATYYCQQSYSSPSTTFGQGTKLEIK
